The assay concerns the target T1, SUMO1 (UniProt P63165 1-97).
T1 construct: SUMO1, expressed from SUMO1-pQE80L; Uniformly 15N-labelled for NMR; Plasmid obtained from Rama Koti, TIFR, Mumbai; also called 15N-SUMO1; 15N-wt-SUMO1; source: E. coli BL21 (DE3), 15NH4Cl-M9 medium, purified (Ni-NTA, Superdex 75)
Nature of the assay: NMR titration; IE1-SIM peptides titrated into ~0.3 mM 15N-SUMO1 or 15N-SUMO2 up to 1:4 (SUMO:SIM); 15N-HSQC, 298K, 800 MHz; PBS, 5 mM DTT, 10% D2O; CSPs fit to a 1:1 model. Particulars: both partners purified.

T1 sequence (P63165 1-97): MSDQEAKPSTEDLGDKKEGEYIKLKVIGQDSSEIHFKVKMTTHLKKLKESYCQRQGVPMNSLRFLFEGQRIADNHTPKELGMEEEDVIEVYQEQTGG

B1: IE1-SIM1 peptide (peptide)
peptide: RPLITKPEVISVMKRRIEE
notes: Human Cytomegalovirus Immediate-Early protein 1 (IE1), peptide around SIM1 (VISV, aa 335-338); source: synthetic peptide (Lifetein)
On to B1, for which the Kd (in general, the constant that tells how readily two partners part at equilibrium) turned out to be 134 ± 23.2 µM.

B2: IE1-SIM2 peptide (peptide)
peptide: PATIPLSSVIVAENSDQEE
notes: Human Cytomegalovirus Immediate-Early protein 1 (IE1), peptide around SIM2 (VIVA, aa 416-419); source: synthetic peptide (Lifetein)
The molecule B2 showed a Kd of 136 ± 32 µM.

These data come from paper PMC8155523, “Non-covalent Interaction With SUMO Enhances the Activity of Human Cytomegalovirus Protein IE1” (Frontiers in Cell and Developmental Biology, 2021).
